These results are taken from PMC5221584.

In this experiment the target is β:C12A yeast αβ-tubulin (yeast) (UniProt P09733). Kind of experiment: microtubule elongation rates by time-lapse DIC microscopy.

For the substance “β:C12A yeast αβ-tubulin (from UniProt P09733 1-447; P02557 1-457) (complex)”, the affinity of the interactions that drive elongation (extrapolation to the x-axis) is 42 nM and the kon was 1.22e+07 M⁻¹ s⁻¹.

What is called kon is a measure of how fast the partners come together. A lower kon goes with slower complex formation.
